Laboratory results from patent US20240124528.

Experiments:
[1] = target: T1, IL-17RB-Flag (Flag-tagged IL-17RB, wild type)
T1 chain: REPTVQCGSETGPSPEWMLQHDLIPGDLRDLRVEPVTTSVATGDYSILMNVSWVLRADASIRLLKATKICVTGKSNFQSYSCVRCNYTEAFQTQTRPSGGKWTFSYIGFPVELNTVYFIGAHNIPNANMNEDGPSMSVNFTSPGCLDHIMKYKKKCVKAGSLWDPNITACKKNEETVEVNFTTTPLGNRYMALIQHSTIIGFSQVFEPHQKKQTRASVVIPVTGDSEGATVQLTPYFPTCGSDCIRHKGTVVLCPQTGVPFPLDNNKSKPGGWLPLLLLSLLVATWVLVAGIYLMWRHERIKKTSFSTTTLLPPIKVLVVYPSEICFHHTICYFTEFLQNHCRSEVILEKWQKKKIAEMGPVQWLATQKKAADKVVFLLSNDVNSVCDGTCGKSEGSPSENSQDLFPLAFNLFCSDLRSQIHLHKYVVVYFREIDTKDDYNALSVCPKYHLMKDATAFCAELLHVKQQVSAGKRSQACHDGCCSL

[2] = target: T2, IL-17RB ΔV403˜S416 (Del-3), HA-tagged
T2 chain: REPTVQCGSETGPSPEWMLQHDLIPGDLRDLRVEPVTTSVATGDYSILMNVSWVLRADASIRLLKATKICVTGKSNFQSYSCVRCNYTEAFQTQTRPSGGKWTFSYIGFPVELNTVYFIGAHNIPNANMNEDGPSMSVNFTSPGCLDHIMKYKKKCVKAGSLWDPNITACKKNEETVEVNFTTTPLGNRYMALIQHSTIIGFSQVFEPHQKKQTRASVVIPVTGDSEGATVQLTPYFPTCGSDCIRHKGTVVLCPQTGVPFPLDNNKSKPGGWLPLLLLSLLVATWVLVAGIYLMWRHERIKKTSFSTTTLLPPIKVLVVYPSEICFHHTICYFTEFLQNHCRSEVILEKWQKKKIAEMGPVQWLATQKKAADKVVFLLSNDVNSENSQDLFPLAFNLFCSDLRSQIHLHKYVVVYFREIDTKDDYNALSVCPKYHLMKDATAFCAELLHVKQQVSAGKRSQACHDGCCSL

[3] = target: T3, interleukin-17 receptor B (IL-17RB), human, endogenous in pancreatic cancer cells
T3 chain: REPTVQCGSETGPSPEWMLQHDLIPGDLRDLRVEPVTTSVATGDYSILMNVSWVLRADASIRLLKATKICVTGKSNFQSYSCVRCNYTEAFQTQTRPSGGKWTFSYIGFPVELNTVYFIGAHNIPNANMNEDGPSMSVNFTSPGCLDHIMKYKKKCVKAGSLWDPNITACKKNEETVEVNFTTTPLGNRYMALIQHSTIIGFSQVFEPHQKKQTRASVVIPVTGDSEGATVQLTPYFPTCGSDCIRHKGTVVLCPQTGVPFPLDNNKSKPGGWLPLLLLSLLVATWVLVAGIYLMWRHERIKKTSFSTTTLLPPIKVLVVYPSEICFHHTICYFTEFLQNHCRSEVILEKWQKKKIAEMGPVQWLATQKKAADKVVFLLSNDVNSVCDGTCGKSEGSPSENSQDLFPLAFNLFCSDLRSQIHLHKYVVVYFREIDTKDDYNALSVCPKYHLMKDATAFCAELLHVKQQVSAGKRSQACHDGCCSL

B1: HA-TRIM56 (TRIM56-HA, HA-tagged tripartite-motif 56) (protein)
chain: MVSHGSSPSLLEALSSDFLACKICLEQLRAPKTLPCLHTYCQDCLAQLADGGRVRCPECRETVPVPPEGVASFKTNFFVNGLLDLVKARACGDLRAGKPACALCPLVGGTSTGGPATARCLDCADDLCQACADGHRCTRQTHTHRVVDLVGYRAGWYDEEARERQAAQCPQHPGEALRFLCQPCSQLLCRECRLDPHLDHPCLPLAEAVRARRPGLEGLLAGVDNNLVELEAARRVEKEALARLREQAARVGTQVEEAAEGVLRALLAQKQEVLGQLRAHVEAAEEAARERLAELEGREQVARAAAAFARRVLSLGREAEILSLEGAIAQRLRQLQGCPWAPGPAPCLLPQLELHPGLLDKNCHLLRLSFEEQQPQKDGGKDGAGTQGGEESQSRREDEPKTERQGGVQPQAGDGAQTPKEEKAQTTREEGAQTLEEDRAQTPHEDGGPQPHRGGRPNKKKKFKGRLKSISREPSPALGPNLDGSGLLPRPIFYCSFPTRMPGDKRSPRITGLCPFGPREILVADEQNRALKRFSLNGDYKGTVPVPEGCSPCSVAALQSAVAFSASARLYLINPNGEVQWRRALSLSQASHAVAALPSGDRVAVSVAGHVEVYNMEGSLATRFIPGGKASRGLRALVFLTTSPQGHFVGSDWQQNSVVICDGLGQVVGEYKGPGLHGCQPGSVSVDKKGYIFLTLREVNKVVILDPKGSLLGDFLTAYHGLEKPRVTTMVDGRYLVVSLSNGTIHIFRVRSPDS
in vitro ubiquitination assay with recombinant E1, E2 and ubiquitin (FIG. 18D) [1]: purified TRIM56 could ubiquitinate IL-17RB at K470 in vitro

B2: mixed-lineage kinase 4 (MLK4), endogenous (protein)
chain: MALRGAAGATDTPVSSAGGAPGGSASSSSTSSGGSASAGAGLWAALYDYEARGEDELSLRRGQLVEVLSQDAAVSGDEGWWAGQVQRRLGIFPANYVAPCRPAASPAPPPSRPSSPVHVAFERLELKELIGAGGFGQVYRATWQGQEVAVKAARQDPEQDAAAAAESVRREARLFAMLRHPNIIELRGVCLQQPHLCLVLEFARGGALNRALAAANAAPDPRAPGPRRARRIPPHVLVNWAVQIARGMLYLHEEAFVPILHRDLKSSNILLLEKIEHDDICNKTLKITDFGLAREWHRTTKMSTAGTYAWMAPEVIKSSLFSKGSDIWSYGVLLWELLTGEVPYRGIDGLAVAYGVAVNKLTLPIPSTCPEPFAKLMKECWQQDPHIRPSFALILEQLTAIEGAVMTEMPQESFHSMQDDWKLEIQQMFDELRTKEKELRSREEELTRAALQQKSQEELLKRREQQLAEREIDVLERELNILIFQLNQEKPKVKKRKGKFKRSRLKLKDGHRISLPSDFQHKITVQASPNLDKRRSLNSSSSSPPSSPTMMPRLRAIQLTSDESNKTWGRNTVFRQEEFEDVKRNFKKKGCTWGPNSIQMKDRTDCKERIRPLSDGNSPWSTILIKNQKTMPLASLFVDQPGSCEEPKLSPDGLEHRKPKQIKLPSQAYIDLPLGKDAQRENPAEAESWEEAASANAATVSIEMTPTNSLSRSPQRKKTESALYGCTVLLASVALGLDLRELHKAQAAEEPLPKEEKKKREGIFQRASKSRRSASPPTSLPSTCGEASSPPSLPLSSALGILSTPSFSTKCLLQMDSEDPLVDSAPVTCDSEMLTPDFCPTAPGSGREPALMPRLDTDCSVSRNLPSSFLQQTCGNVPYCASSKHRPSHHRRTMSDGNPTPTGATIISATGASALPLCPSPAPHSHLPREVSPKKHSTVHIVPQRRPASLRSRSDLPQAYPQTAVSQLAQTACVVGRPGPHPTQFLAAKERTKSHVPSLLDADVEGQSRDYTVPLCRMRSKTSRPSIYELEKEFLS
Y447 phosphorylation of IL-17RB (immunoblot with anti-P-Y447, FIG. 5D) [2]: Del-3 failed to bind to MLK4 and phosphorylate Y447 | IL-17RB phosphorylation at Y447 (immunoblot after MLK4 knockdown or knockout, FIG. 5A) [3]: either knockdown (left) or knockout (right) of MLK4 nearly completely abolished IL-17RB phosphorylation at Y447
